Molecular target: djb11_human DNAJB11 (UniProt Q9UBS4)
Sequence (Q9UBS4 whole entry): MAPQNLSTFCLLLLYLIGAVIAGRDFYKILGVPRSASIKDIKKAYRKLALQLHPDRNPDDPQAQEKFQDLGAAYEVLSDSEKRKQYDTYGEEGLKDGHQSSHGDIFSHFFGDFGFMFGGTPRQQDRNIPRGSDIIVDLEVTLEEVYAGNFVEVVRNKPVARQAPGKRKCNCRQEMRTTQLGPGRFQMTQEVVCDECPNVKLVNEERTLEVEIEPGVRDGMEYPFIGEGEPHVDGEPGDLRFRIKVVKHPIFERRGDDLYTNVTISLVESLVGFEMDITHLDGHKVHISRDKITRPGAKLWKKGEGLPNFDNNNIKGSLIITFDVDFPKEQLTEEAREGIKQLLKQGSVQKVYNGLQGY

effect of a mutation on the interaction: disrupting interaction
Substance: Endoplasmic reticulum chaperone BiP (Mesocricetus auratus (Golden hamster)), P07823 R197E

— IntAct's records for PubMed 18203820
